{"source": "patent US20230348858", "about": "“COMPOSITIONS AND METHODS FOR PROMOTING PROLIFERATION IN CARDIOMYOCYTES” (THE TRUSTEES OF INDIANA UNIVERSITY, published 2023)", "biological_target": "Brg1 helicase domain D1D2 (Mus musculus, UniProt Q3TKT4 SEQ:1-431)", "sequence (Q3TKT4 774-1204)": "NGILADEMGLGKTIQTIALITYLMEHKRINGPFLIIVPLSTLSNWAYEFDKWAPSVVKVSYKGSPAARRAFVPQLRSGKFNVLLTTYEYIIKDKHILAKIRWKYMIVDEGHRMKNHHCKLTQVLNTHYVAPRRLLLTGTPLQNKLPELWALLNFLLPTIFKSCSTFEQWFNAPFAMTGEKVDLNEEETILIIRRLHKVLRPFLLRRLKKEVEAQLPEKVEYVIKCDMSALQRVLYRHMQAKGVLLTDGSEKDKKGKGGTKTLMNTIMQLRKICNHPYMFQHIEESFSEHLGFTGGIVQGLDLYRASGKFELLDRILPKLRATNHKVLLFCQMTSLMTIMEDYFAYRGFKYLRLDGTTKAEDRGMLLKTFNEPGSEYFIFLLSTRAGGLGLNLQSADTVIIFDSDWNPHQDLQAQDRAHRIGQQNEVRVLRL", "assay": "EMSA; 10 mM HEPES-KOH pH 7.3, 10 mM NaCl, 1 mM MgCl2, 1 mM DTT, tRNA carrier, room temp", "conditions": "tags: MBP fusion; label: 5'-biotin", "protocol": "Biotin-labelled RNA control probe: [0158] Biotin—5′[…]-3′ (SEQ ID NO 25); and Biotin-labelled RNA probe with m⁶A: [0159] Biotin—5′[…](m⁶A)[…]-3′ (SEQ ID NO 26); were synthesized by Gene Link (Orlando, Fla.). EMSA was performed by using the LightShift™ Chemiluminescent RNA EMSA Kit (Cat. 20158, Thermo Scientific). The labelled probe was incubated with appropriate amounts of recombinant proteins in 10 μl in the 1× binding buffer (10 mM HEPES-KOH, pH 7.3, 10 mM NaCl, 1 mM MgCl2, 1 mM DTT) with 5 μg tRNA carrier at room temperature for 30 min. The reactions were then loaded onto 1% 0.5× TBE agarose gel and transferred to Bright Star Plus positive charged membrane. The biotin-labelled probes were detected and quantified subsequently using Odyssey Infrared Imaging System. The shifted signals were quantified and plotted against amount of the MBP-D1D2 protein ((SEQ ID NO 27) coupled to (SEQ ID NO 2)) with GraphPad Prism (GraphPad). The software facilitates the fitting of nonlinear regression model and calculation of Kd values based on the fitting curve. The errors and r² values were also generated from the fitting curve."}
{"binder": "UCGUCAUGGCUGAACUGCGGUUGUACACGCUGGUGCAGAGAGAUCGCAU (ssRNA, m6A at A25 (M2 adenosine))", "note": "[Bmp10 RNA probe with m6A (49 nt)]", "values": [{"measurement": "Kd", "value": 176, "unit": "nM"}]}
